Experimental data: the supplement of paper PMC10126150
± gives the standard deviation of the averaged measurements.

tested on: ATP; assay: switch fluorescence ratio, 500 uM ATP over buffer (Cy3 cluster intensity, sum of 5 cycles each) (fold (ratio)); higher = stronger signal-on switching upon ATP binding; sequences stand for … in TCGTCGGCAGCGTCAGATGTGTATAAGAGACAGTTTTTTTTTTTTTTTTTTTTTTTTT…TC; conditions: aptamer strand: ATP DNA aptamer (quencher-CACCTGGGGGAGTATTGCGGAGGAAGG + anchor), 100 nM annealed; ATP concentration: 500 uM
Method in brief: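 Imaging in selection buffer was followed by imaging after 15 min with 500 uM ATP at 22 °C, for Cy3-labelled switching-strand clusters annealed to 100 nM quencher-labelled ATP aptamer on a modified Illumina MiSeq flow-cell. Five of these buffer/ATP cycles ran, separated by NaOH stripping and re-annealing. The fluorescence ratio per cluster is summed target-cycle over summed buffer-cycle Cy3 intensity, averaged per switch-domain sequence; clusters outside 100-1000 RFU were removed.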
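Note: ATP exposure 15 min at 22 °C before imaging.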

Sequence	switch fluorescence ratio
TATGGGGTCA	0.979 ± 0.018
TATGGTCAGT	0.968 ± 0.047
TATGGTTCGC	0.997 ± 0.055
TATGGTTTAA	0.975 ± 0.042
TATGGTTTGG	0.987 ± 0.028
TATGGTTTTC	1.01 ± 0.084
TATGTACGAT	1.05 ± 0.059
TATGTACTGT	1.09 ± 0.03
TATGTATTCT	1 ± 0.017
TATGTCAAG	1.02 ± 0.016
TATGTCAAGC	0.96 ± 0.038
TATGTCACAA	1.03 ± 0.014
TATGTCCGCT	1.05 ± 0.058
TATGTCTTAT	0.983 ± 0.027
TATGTGAGGA	0.989 ± 0.025
TATGTGATCT	0.9762 ± 0.0052
TATGTGGGCC	0.97 ± 0.041
TATGTTAAAG	0.996 ± 0.017
TATGTTAGGC	1.018 ± 0.01
TATGTTAGTT	1.01 ± 0.019
TATGTTTCGG	0.98 ± 0.011
TATTAAGTGC	0.955 ± 0.039
TATTAATGCT	1.028 ± 0.0052
TATTAATTCG	1.01 ± 0.032
TATTAGAATC	0.994 ± 0.026

Sequence	switch fluorescence ratio
TATTAGTGAA	1.01 ± 0.013
TATTAGTGCT	0.977 ± 0.033
TATTAGTTGC	1 ± 0.034
TATTATGAAT	0.999 ± 0.0024
TATTATGGAG	0.988 ± 0.021
TATTATTTCA	0.991 ± 0.024
TATTCACATT	0.994 ± 0.024
TATTCACGGG	1.0859 ± 0.00034
TATTCACTTG	1.04 ± 0.025
TATTCAGATA	0.9773 ± 0.008
TATTCAGCTA	1.07 ± 0.099
TATTCATTTG	1.027 ± 0.0068
TATTCCAATA	0.995 ± 0.03
TATTCGATTT	1.032 ± 0.0016
TATTCGGTTT	0.9889 ± 0.0048
TATTCGTTTT	0.989 ± 0.011
TATTCTAAAT	1.01 ± 0.016
TATTCTAGAG	0.989 ± 0.044
TATTGAGGGT	0.981 ± 0.034
TATTGCGGCC	1.02 ± 0.026
TATTGCTGCT	0.983 ± 0.032
TATTGGAGGG	0.974 ± 0.019
TATTGGCTTC	0.992 ± 0.018
TATTGGGAAA	1.06 ± 0.045
TATTGGGATA	1.01 ± 0.027

Sequence	switch fluorescence ratio
TATTGGGCAG	1.01 ± 0.023
TATTGGGCAT	0.985 ± 0.018
TATTGGGGA	0.958 ± 0.011
TATTGGGTAA	1.11 ± 0.14
TATTGGGTGA	0.99228 ± 0.00097
TATTGGGTGT	1.034 ± 0.0014
TATTGTACTC	1.03 ± 0.018
TATTGTAGGG	0.97 ± 0.013
TATTGTATGA	1.029 ± 0.0049
TATTGTCAGA	1.01 ± 0.019
TATTGTCCTT	1.019 ± 0.0056
TATTTAAGGT	1 ± 0.02
TATTTACGCT	1.05 ± 0.025
TATTTACTCG	1.05 ± 0.073
TATTTAGAAG	1.02 ± 0.054
TATTTAGGAG	0.999 ± 0.021
TATTTAGGCG	0.99 ± 0.064
TATTTAGGTA	1.022 ± 0.0031
TATTTAGGTG	1.11 ± 0.018
TATTTATAGT	1.02 ± 0.013
TATTTATCTT	0.989 ± 0.021
TATTTATGGG	0.978 ± 0.023
TATTTCTGAT	0.988 ± 0.016
TATTTCTTT	0.99 ± 0.026
TATTTGAGCT	1.03 ± 0.037

Sequence	switch fluorescence ratio
TATTTGGATA	1.05 ± 0.1
TATTTGGCTA	0.983 ± 0.045
TATTTGGGCG	1.053 ± 0.0059
TATTTGTACG	1.018 ± 0.0046
TATTTGTAGT	1.01 ± 0.039
TATTTGTCGG	1.0172 ± 0.00047
TATTTGTTAG	0.997 ± 0.031
TATTTTACTA	1.01 ± 0.032
TATTTTAGAG	0.966 ± 0.018
TATTTTAGGA	0.9743 ± 0.003
TATTTTGCGC	1.02 ± 0.026
TATTTTGGCG	0.986 ± 0.025
TATTTTTCGC	0.967 ± 0.015
TATTTTTCTC	0.983 ± 0.034
TATTTTTGGT	0.986 ± 0.021
TATTTTTTCG	0.987 ± 0.027
TATTTTTTGG	1.02 ± 0.033
TCAAAAAATT	1.02 ± 0.037
TCAAACCGCA	1.91 ± 0.16
TCAAACGAC	1.08 ± 0.011
TCAAAGGGCG	0.99 ± 0.049
TCAAAGGTAC	1.04 ± 0.0092
TCAAAGGTGT	1.22 ± 0.14
TCAAATAGGC	1.016 ± 0.01
TCAAATCGGT	1.03 ± 0.042
